The text below walks through data of US20240084003A1 (SIMCERE ZAIMING PHARMACEUTICAL, published 2024).

Assay [1] concerns the target T1, human CD22-ECD-His protein (human, UniProt P20273 20-687).
T1 construct: Made in house in HEK293E; also called hCD22-ECD-His; recombinant human CD22-ECD His protein; not shown: His tag
T1 sequence: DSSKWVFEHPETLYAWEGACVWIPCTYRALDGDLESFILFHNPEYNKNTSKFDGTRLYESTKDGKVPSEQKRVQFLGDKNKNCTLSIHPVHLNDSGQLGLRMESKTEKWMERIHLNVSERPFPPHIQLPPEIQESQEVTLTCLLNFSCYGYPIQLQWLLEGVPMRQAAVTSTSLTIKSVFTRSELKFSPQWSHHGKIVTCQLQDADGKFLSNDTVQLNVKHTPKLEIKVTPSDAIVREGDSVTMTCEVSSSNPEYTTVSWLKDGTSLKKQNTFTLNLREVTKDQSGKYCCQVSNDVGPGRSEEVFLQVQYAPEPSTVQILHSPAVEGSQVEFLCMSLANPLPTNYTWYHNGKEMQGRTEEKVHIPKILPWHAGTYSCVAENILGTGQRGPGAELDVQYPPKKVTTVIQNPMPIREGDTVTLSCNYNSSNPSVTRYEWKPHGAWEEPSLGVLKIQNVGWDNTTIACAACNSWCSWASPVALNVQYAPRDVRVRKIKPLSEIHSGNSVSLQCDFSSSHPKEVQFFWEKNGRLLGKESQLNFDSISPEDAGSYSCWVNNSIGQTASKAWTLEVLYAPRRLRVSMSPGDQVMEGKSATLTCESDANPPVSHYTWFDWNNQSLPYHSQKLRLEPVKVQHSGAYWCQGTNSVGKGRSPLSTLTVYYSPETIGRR
The assay is described as follows: ELISA, Ab 100.00 nM. In short, it runs like this: (§1)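 Binding of chimeric anti-CD22 antibodies was detected by indirect ELISA on CD22-ECD-His coated at 2 μg/mL, with HRP secondary and TMB substrate.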
A general note: ELISA stands for enzyme-linked immunosorbent assay.

In assay [2] the target is T2, monkey CD22 protein (ACROBiosystems, SI2-R52Ha) (monkey (rhesus monkey in paragraph 148), UniProt H9G1X2 18-686).
T2 construct: extracellular domain; also called monkey CD22-ECD; monkey CD22-ECD-His
T2 sequence: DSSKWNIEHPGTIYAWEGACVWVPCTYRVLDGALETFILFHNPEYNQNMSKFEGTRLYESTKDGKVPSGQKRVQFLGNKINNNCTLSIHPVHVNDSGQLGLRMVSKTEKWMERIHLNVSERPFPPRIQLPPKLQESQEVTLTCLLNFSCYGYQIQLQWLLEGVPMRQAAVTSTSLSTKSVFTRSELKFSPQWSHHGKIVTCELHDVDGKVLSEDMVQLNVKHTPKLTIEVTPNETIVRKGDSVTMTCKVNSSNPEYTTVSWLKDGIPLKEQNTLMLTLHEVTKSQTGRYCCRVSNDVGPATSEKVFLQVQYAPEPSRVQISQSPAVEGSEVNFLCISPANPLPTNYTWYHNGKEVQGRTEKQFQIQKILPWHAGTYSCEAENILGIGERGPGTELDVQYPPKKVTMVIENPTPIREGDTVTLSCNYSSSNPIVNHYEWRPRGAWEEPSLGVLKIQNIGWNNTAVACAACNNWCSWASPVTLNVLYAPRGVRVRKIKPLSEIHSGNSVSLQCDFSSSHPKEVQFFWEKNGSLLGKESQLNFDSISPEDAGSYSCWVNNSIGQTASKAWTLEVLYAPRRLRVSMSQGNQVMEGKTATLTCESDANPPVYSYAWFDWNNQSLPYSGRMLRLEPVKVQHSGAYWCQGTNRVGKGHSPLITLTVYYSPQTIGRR
Description: ELISA, monkey CD22-ECD-His coated. In short, it runs like this: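 Coat 2 μg/mL CD22 in PBS, overnight 4° C; block PBS/2% BSA 2 h RT. Ab 2 h 37° C; HRP anti-species secondary 2 h 37° C. TMB 30 min RT, stop 1.0 N HCl.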

Assay [3] has as its target T3, human CD22 domain1-4-His (human, UniProt P20273 20-425).
T3 construct: also called hCD22 domain1-4-His; not shown: His tag
T3 sequence: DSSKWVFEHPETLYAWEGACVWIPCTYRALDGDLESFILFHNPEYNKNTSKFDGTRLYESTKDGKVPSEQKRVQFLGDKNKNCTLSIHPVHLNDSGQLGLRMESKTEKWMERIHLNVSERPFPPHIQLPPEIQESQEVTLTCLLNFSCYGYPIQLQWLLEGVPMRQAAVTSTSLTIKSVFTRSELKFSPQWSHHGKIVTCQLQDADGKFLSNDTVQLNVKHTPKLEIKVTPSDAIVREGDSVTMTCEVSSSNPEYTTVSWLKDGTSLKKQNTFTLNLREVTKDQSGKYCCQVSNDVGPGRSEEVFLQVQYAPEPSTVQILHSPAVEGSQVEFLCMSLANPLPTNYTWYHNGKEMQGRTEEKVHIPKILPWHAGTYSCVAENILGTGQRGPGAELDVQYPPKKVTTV
The assay is described as follows: ELISA, human CD22 domain1-4-His coated.

Assay [4] deals with T1, human CD22-ECD-His protein. Description: ELISA, Ab 0.00001 nM. The method in brief: as §1
The target in assay [5] is T4, human CD22 domain5-7-His (human, UniProt P20273 414-687).
T4 construct: also called hCD22 domain5-7-His; not shown: His tag
T4 sequence: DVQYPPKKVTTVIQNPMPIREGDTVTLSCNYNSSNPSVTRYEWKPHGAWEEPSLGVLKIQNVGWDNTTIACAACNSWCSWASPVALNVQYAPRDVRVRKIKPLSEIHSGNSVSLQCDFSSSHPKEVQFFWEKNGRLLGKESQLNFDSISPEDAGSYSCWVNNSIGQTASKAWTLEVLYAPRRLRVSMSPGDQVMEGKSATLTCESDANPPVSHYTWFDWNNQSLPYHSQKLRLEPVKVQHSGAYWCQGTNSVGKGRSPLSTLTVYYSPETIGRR
The assay is described as follows: ELISA, human CD22 domain5-7-His coated.

B1: F2.55.1 (antibody, human IgG1, lambda, V domains shown)
VH: QVTLKESGPGILQPSQTLSLTCSFSGFSLSTFPLGVGWIRQPSGKGLEWLAHVWWNDDDYYNPALKSRLTISKDTSNTRVFLSVASVDTAETATYYCARLNWDRWYFDVWGTGTTVTVSS
VL: QLVLTQSSSASFSLGASAKLTCTLSSQHSAYTVEWYQQQPLKPPKYVMELKKDGSHSTGDGIPDRFSGSSSGADRYLSISNIQPEDEAIYICGVGDTVKEQFVFGGGTKVTVLG
notes: Human-murine chimeric IgG1, lambda
What is called EC50 (read off the curve) is the concentration at which the effect is half-maximal. As to B1, the OD450 came to 2.08 OD450 in assay [1] and 0.16 OD450 in assay [4]. Besides, the “EC50 (read off the curve)” value in assay [2] and in assay [3] was about 100 pM each time. In addition, the binding result in assay [5] is “no binding (tested: 100 nM)”.

B2: F2.70.2 (antibody, human IgG1, lambda, V domains shown)
VH: EVQLVESGGGLVKPGGSLKLSCAASGFTFSDYGMNWFRQAPEKGLEWVAYISRGSHTIYYADTVKGRFTISRDNAKNTLFLQMTSLRSNDTAMYYCVRMAGYYAMDYWGQGTSVTVSS
VL: QLVLTQSSSASFSLGASAKLTCTLSSQHSSYIIEWYQQQPLKPPKYVMELKKDGSHSTGDGIPDRFSGSSSGADRYLSISNIQPEDEAIYICGVGDTIKEQFVYVFGGGTKVTVLG
notes: as for B1
As for B2, the OD450 in assay [1] stood at 2.24 OD450; in assay [4], 0.09 OD450. In addition, the binding result in assay [2] and in assay [5] was “no binding (tested: 100 nM)” throughout. The half-maximal effective concentration (EC50 (read off the curve)) in assay [3] is about 30 pM.

B3: F2.104.10 (antibody, human IgG1, lambda, V domains shown)
VH: EVQLVESGGGFVKPGGSLKLSCAASGFTFSDYGMNWFRQAPEKGLEWVAYISRGSHTIYYADTVKGRFTISRDNAENTLFLQMTSLRSNDTAMYYCVRMAGYYAMDYWGQGTSLTVSS
VL: QLVLTQSSSASFSLGASAKLTCTLSSQHSSYIIEWYQQQPLKPPKYVMEVKKDGSHSTGDGIPDRFSGSSSGADRYLSISNIQSEDEAIYICGVGDTIKEQFVYVFGGGTKVTVLG
notes: as for B1
B3: the OD450 in assay [1] came out at 2.44 OD450; in assay [4], 0.22 OD450. Besides, the binding result in assay [2] and in assay [5] was “no binding (tested: 100 nM)” throughout. Moreover, the “EC50 (read off the curve)” value in assay [3] is about 40 pM.

B4: F2.343.16 (antibody, human IgG1, lambda, V domains shown)
VH: QVQLKQSGPGLVQPSQSLSITCTVSGFSLTGYGVQWVRQSPGKGLEWLGVIWGGGGTDYNAAFISRLNIIKDNSKSQVFFKMNSLQADDTAIYYCARYSKYGHFDVWGTGTAVTVSS
VL: QAVVTQESALTTSPGETVTLTCRSSTGAVTTSNYANWVQEKPDHLFTGLIGGTYNRVPGVPARFSGSLIGDKAALTITGAQTEDEAIYFCALWYSNHFWVFGGGTKLTVLG
notes: as for B1
As for B4, the results for the OD450 in assay [1] and in assay [4] were 1.94 OD450 and 0.18 OD450, respectively. Also, the binding result in assay [2] and in assay [5] was “no binding (tested: 100 nM)” in each case. Also, the “EC50 (read off the curve)” value in assay [3] is about 60 pM.

B5: F2.205.9 (antibody, human IgG1, lambda, V domains shown)
VH: QVTLKESGPGILQPSQTLSLTCSFSGFSLSTSGMGVGWIRQPSGKGLEWLAHIWWDDDEYYNPALKSRLTISKDTSKNQVFLKIANVDTADTATYYCARISIPYGYYDWFFDVWGTGTTVTVSA
VL: QAVVTQESALTTSPGETVTLTCRSSTGAVTTRNYANWVQEKPDHLFTGLIGGTNNRAPGVPARFSGSLIGDKAALTITGAQTEDEAIYFCALWYSNHFIFGSGTKVTVLG
notes: as for B1
For the molecule B5, the OD450 in assay [1] amounted to 2.22 OD450; in assay [4] it was 0.19 OD450. Moreover, the “EC50 (read off the curve)” value in assay [2] was about 30 pM; in assay [3], about 40 pM. In addition, in assay [5], the binding result was “no binding (tested: 100 nM)”.

B6: F1.60.9 (antibody, human IgG1, kappa, V domains shown)
VH: QVQLKESGPGLVAPSQSLSITCTVSGLSLNNYGVSWVRQPPGKGLEWLGVIWGDGSTNYHSALISRLSISKDNSKSQVFLKLNSLHTDDTATYYCAINWGDYWGQGTTLIVSS
VL: DIKMTQSPSSMNASLGERVTITCKASQDINSYLSWFQQKPGKSPKILIYRANRLIDGVPSRFSGSGSGQDYSLTISSLEYEDMGIYYCLQYGVFPLTFGAGTKLELKR
notes: Human-murine chimeric IgG1, kappa
B6: the OD450 is 2.82 OD450 in assay [1] and 0.09 OD450 in assay [4]. Besides, the binding result in assay [2] and in assay [3] was “no binding (tested: 100 nM)” throughout. Further, the “EC50 (read off the curve)” value in assay [5] is about 100 pM.

B7: F1.17.1 (antibody, human IgG1, kappa, V domains shown)
VH: QVQLKESGPGLVAPSQSLSITCTVSGFSLSRYTVHWVRQPPGKGLEWLGMIWGGGSTDYNSALKSRLSISKDNSKSQVFLKMNSLQTDDTAMYYCARPHDFDAGGFAYWGQGTLVTVSA
VL: QIVLTQSPAILSTSPGEKVTMTCSASSRVNYMYWYQQKPGSSPRLLIYDTSNLASGVPVRFSGSGSGTSYSLTISRMEAEDAATYYCQQWTSYPLTFGAGTKLELKR
notes: as for B6
For B7, the OD450 in assay [1] was 2.86 OD450; in assay [4], 0.11 OD450. Further, the “EC50 (read off the curve)” value in assay [2] is about 20 pM; in assay [3], about 100 pM. Moreover, the binding result in assay [5] is reported as “no binding (tested: 100 nM)”.

B8: F1.245.2 (antibody, human IgG1, kappa, V domains shown)
VH: EVQLQQSGAELVKPGASVKLSCTGSGFNIKDYYIHWVKQRTEQGLEWMGRIDPEDGETEYAPKFQDEATITSDTSSNTAYLQLSSLTYEDTAVYYCAREAAGYFYRGSSYGYFDVWGTGTTVTVSS
VL: DFQMTQTTSFLSASLGDRVTISCSASQDISNYLNWYQQKPDGTVKLLIYYTSSLHSGVPSRFSGSGSGTDYSLTISNLEPEDIATYYCQQYSMLPYTFGGGTKLEMER
notes: as for B6
Take B8: the OD450 in assay [1] was 2.7 OD450; in assay [4], 0.22 OD450. For the same molecule, the binding result in assay [2] and in assay [5] was “no binding (tested: 100 nM)” in each case. Besides, the “EC50 (read off the curve)” value in assay [3] was about 20 pM.
